The nanobody polyreactivity screen of Harvey et al. (2022)

Experiment: yeast display, Sf9 membrane polyspecificity reagent, FACS + sequencing; frameworks hold sequencing errors
Procedure, shortened: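 Galactose-induced (36–48 hours) yeast carrying a synthetic nanobody display library were exposed to 10% biotinylated, detergent-solubilized Sf9 membrane reagent at 4 °C for 1 hour. FACS followed streptavidin microbead enrichment, using low and high (top ~1%) gates for expression (anti-HA) and reagent binding (streptavidin). Colony PCR, MiSeq 2 × 250 sequencing and CDR-length filtering followed. Labels for polyreactivity reflect the gate of origin.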

Sequence	polyreactivity (PSR sort gate)
QVQLVESGGGLVQAGGSLRLSCASSGLTFALYAMGWYRQAPGKEREFVAAITGSGGSTYYADSVKGRFTISRDNAKHTVYLQMNSLKPEYTAVYYCNKLFYRWRIVDKYYYWGQGTQVTVSS	high polyreactivity
QVQLVESGGGLVQAGGSLRLSCAASGSTFRHYAMGWYRQAPGKERELVAAISYSGSRTYYADSVKGRFTISRDNAKNTVYLQMNSLKPEDTAVYYCNVNLQGRYSDKYDYWGQGTQVTVSS	high polyreactivity
QVQLVESGGGLVQAGGSLRLSCAASGSIFSKYAMGWYRQAPGKERELVAAISISDGNTYYADSVKGRFTISRDNAKNTVYLQMNSLKPEDTAVYYCATVGSEDGDPGFDYWGQGTQVTVSS	low polyreactivity
QVQLVESGGGLVQAGGSLRLSCAASGITFYGNAMGWYRQAPGKERELVANTYYADSVKGRFTISRDNAKNTVYLQMNSLKPEDTAVYYCATRNARYRSQPPGYDYWGQGTQVTVSS	low polyreactivity
QVQLVESGGGLVQAGGSLRLSCAASGSTFGYNGMGWYRQAPGKVRELVAAISGGARTYADSVKGRFTISRDNAKNTVYLQMNSLKPEDTAVYYCAADSPVSVTADDGYWGQGTQVTVSS	low polyreactivity
QVQLVESGGGLVQAGGSLRLSCAASGRIFQYNAMGWYRQAPGKERELVAAIRRGGGSTYYADSVKGRFTISRDNAKNTVYLQMNSLKPEDTAVYYCADRRQRVSFYPEYDYWGQGTQVTVSS	low polyreactivity
QVQLVESGGGLVQAGGSLRLSCAASGSIFVTYAMGWYRQAPGKERELVASITLSGGSTYYADSVKGRFTISRDNAKNTVYFQKNSLKPEDTEVYYCNAEGTSWTSTRFDYWGQGTQVTVSS	high polyreactivity
QVQLVESGGGLVQAGGILRLSCAASGRTLSKNAMGWYRQAPGKERELVATISSVGRTNYADSVKGRFTISRDNEKITVYLQMISLKPEDTAVYYCSARRFRGSYYWGQGTQVTVSS	high polyreactivity
QVQLVESGGGLVQAGGSLRISSAASGPTFVPNAMGSYRQAPGKERELVATITSGGNTYYADSVKGRFTISRDNAKNTVYLQMNSLKPEDTAVYYCNRDWIYWGPRRNSGEYWGQGTQVTVSS	low polyreactivity
QVQLVESGGGLVQAGGSLRLSCAASGSTFRRNAMGWYRQSPGKERELVAAISWRGGSTYYADSVKGRFTISRDYAKNTVYLQMNSLKPEDTAVYYCNTYHPYWGSGFDYWGQGTQVTVSS	low polyreactivity
QVHLEESGGGLVQAGGSLRISCAASGSTFYYYAMGWYRQAPGKERELVAAISNRDGRTYYADSVKGRFTISRDNAKNTVYLQMNSLKPEDSAVYYCNAYSYGHYYWGQGTQVTVSS	high polyreactivity
QVQLHESGGGLVQAGGSLRLSCAASGTISYAGPIGWYRQAPGKEREFVAGIGVCSNTNYADSVKGRYTIIRDNAKNTVYLQMNSLKPEDTAVYYCAAETDSWVGGYSYASLDYWGQGTQVTVSS	low polyreactivity
QVPLVESGGGLVQAGGSLRLSCDASGSTFFPNAMGWYRQAPGKEREFVAAISWSGGRTYYADSVKGRFTISRDNAKNTVYLQMNSLKPEDTAVYYCAARLYTVRYGYWGQGTQVTVSS	high polyreactivity
QVHLQESGCGLVQAGGSLRLSCAPSGSIFVSVTMGWYRQAPGKERELVASIGRGSTTNHADSVKGRFTISRDNAKNIVYLLMNSLKPEDTAVYFCAALESYGKYHGYWGQGTKVTVSS	low polyreactivity
QVQLVESGGGLVQAGGSLRLSCAASGSTFIGYAMGWYRQAPGKERELVASISWGGGSTYYADSVKGRFTISRDNAKNTVYLQMNSLKPEDTAVYYCATDGRTYIDFYWGQGTQVTVSS	low polyreactivity
QVQLVESGGGLVQAGGSLRLSCDASGFIIARNAMGWYRQAPGKERELVAAISASGGRTYYADSVKGRFTISRDNAKNTVYLQMNSLKPEDTAVYYCAARRDGRSGSYNYWGQGTQVTVSS	high polyreactivity
QVQLVESGGGLVQAGGSLRLSCAASGTFSSYAMGWYRQAPGKERELVAAITNGGNTNYADSVKGRFTISRDNAKNTVYLQMNSLKPEDTAVYYCNARYGNESQGWEDYWGQGTQVTVSS	low polyreactivity
QDQLVESGGGLVQAGGSLRLSCAASGRTFYRYTMGWYRQAPGKESELVAGISWRGGTTYYADSVKGRFTISRDNAKNTVYLQMNSLKPEDTAVYYCAAKAGYRYGSLAYYKYDYWGQGTQVTVSS	high polyreactivity
QVQLVESGGGLVQAGGSLRLSCAASGITFSNYSMGWYRQAPGKERELVAAISKRGGSTYYADSVKGRFTISRDNAKNTVYLQMNSLKPEDTAVYNCAAAGVRVYVRSGLDYWGQGTQVTVSS	high polyreactivity
QVQLVESGGGLVQAGGSLRLSCASSGSTFDINAMGWYTQAPGKARELVAAITCGGGTNYADSVKGRFTISRDNAKNTVYLEMNSLKPEDTAVYYCAAVYYSTDYYFWYDYWGQGTQVTVSS	low polyreactivity
QVQLVESGGGLVQSGASLRLSCAASGSIFDSYTMGWYRQAPGKEREWVAAISWSGGRTYYADSVKGRFTISRDNAKNTVYLQMNTLKPEDTAVYYCAARNVWKYLFGYDYWGQGTQVTVSS	high polyreactivity
